Experimental findings from paper doi:10.1101/2023.03.09.531992 are described below.

Experiment [1] concerns the target clientized GST-S tail construct Thr1273Asp (SARS-CoV-2 S, Leu1244 to Thr1273) (SARS-CoV-2) (UniProt P0DTC2). Nature of the experiment: pull-down.
Experiment [2] addresses clientized GST-S tail construct Thr1273Glu (SARS-CoV-2 S, Leu1244 to Thr1273) (SARS-CoV-2) (UniProt P0DTC2). The experiment can be described thus: pull-down.

Consider “endogenous coatomer complex (COPI), mouse liver cytosol, Q8CIE6;Q9JIF7;O55029;Q9QZE5;Q5XJY5;O89079;P61924”, for which the fold binding against the Lys-x-Lys-x-xCT dibasic mutant in experiment [1] and in experiment [2] was 2 fold each time. Further, the fold higher affinity than the wild-type GST-S tail construct in experiment [1] and in experiment [2] was 17 fold each time.
